Numbered stars: 1 amine (or outer) side, 2 acyl side, 3 side chain; on linkers, the order of the positions; unused ones are H or OH. Bridge positions count the residues as written; N and C are the ends. Ends that are not written are not given here. * marks the point of attachment. C20 diacid = O=C(O)CCCCCCCCCCCCCCCCCCC(=O)*; γGlu = O=C(O)[C@H](CCC(=O)[*:2])N[*:1]

The target in test [1] is T1, human amylin receptor (amylin 3(a) receptor: human calcitonin receptor co-expressed with RAMP-3) (human, UniProt P30988 25-474; O60896 24-148, limits assumed).
T1 construct: whole, on cells; Used as cell membranes prepared from the Amylin 3(a)/CRE-luc BHK cells (Assay V); also called hAmylin-R; hAmylinR
T1 sequence (looked up) 1: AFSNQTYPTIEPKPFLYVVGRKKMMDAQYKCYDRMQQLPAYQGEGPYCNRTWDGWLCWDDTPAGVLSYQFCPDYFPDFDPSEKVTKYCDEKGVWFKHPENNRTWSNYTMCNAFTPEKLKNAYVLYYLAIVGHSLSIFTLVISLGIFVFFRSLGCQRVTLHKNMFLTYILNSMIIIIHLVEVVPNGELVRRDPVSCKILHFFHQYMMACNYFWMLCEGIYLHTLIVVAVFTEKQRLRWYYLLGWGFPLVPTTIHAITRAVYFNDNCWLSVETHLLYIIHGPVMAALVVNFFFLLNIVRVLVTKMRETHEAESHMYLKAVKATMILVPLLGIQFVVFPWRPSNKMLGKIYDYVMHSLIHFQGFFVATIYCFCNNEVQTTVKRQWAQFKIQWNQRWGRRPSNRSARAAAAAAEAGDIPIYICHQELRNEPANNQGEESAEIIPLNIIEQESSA
T1 sequence (looked up) 2: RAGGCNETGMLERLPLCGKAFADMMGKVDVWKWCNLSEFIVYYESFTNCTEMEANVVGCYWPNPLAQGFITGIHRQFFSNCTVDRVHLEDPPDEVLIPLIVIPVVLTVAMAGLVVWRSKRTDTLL
Put plainly: SPA displacement of 125I-rat amylin, hAmylin 3(a) receptor membranes. The gist of the method:
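One-site competition analysis of SPA counts yielded IC₅₀ as a measure of affinity. Membranes were at 35 ng/μL final; incubation was 120 min at 25° C, pH 7.4.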
Background: In a radioligand displacement assay an active substance lowers the binding of a labelled ligand.

Test [2] concerns the target T2, rat calcitonin receptor (rat, UniProt P32214 25-516).
T2 construct: whole, on cells; In cell membranes prepared from transiently transfected BHK tk'ts 13 cells (Assay VIII); also called rCTR; rat calcitonin (a) receptor
T2 sequence (looked up): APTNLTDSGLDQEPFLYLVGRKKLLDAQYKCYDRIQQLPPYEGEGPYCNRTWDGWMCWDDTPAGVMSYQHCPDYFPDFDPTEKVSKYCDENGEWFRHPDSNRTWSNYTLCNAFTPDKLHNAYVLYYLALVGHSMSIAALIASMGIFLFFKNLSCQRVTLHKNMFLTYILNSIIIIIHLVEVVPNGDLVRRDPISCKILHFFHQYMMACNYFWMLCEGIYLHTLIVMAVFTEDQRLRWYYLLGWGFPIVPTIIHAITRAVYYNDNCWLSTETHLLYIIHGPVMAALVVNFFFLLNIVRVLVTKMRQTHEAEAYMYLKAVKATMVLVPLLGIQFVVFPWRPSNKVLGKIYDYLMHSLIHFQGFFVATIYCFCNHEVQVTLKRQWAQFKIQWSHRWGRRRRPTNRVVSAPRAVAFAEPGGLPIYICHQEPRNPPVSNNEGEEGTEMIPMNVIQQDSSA
As to the kind of experiment: SPA competition binding, displacement of 125I-Calcitonin from membranes of BHK tk'ts 13 cells with rat calcitonin receptor (Assay VIII).

In test [3] the target is T3, human amylin receptor (amylin 3(a) receptor: human calcitonin receptor plus RAMP-3) (human, UniProt P30988 25-474; O60896 24-148).
T3 sequence (looked up) 1: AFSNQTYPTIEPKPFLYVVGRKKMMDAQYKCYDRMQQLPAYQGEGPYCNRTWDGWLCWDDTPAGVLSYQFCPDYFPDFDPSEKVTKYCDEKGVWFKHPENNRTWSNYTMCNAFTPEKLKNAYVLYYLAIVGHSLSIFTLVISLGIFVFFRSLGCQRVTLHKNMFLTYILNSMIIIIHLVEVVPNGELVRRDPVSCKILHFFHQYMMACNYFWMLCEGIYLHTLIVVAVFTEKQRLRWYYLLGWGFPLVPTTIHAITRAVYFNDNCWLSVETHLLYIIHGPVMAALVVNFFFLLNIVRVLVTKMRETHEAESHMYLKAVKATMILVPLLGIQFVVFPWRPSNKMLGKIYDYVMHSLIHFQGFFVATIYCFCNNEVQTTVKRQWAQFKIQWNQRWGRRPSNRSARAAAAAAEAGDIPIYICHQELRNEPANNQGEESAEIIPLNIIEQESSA
T3 sequence (looked up) 2: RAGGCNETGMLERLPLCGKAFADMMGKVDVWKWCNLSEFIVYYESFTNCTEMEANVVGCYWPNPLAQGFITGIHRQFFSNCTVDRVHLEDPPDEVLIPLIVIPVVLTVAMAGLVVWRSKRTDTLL
As to the kind of experiment: cell-based or functional assay.

Test [4] addresses T4, human calcitonin receptor (human, UniProt P30988 25-474).
T4 sequence (looked up): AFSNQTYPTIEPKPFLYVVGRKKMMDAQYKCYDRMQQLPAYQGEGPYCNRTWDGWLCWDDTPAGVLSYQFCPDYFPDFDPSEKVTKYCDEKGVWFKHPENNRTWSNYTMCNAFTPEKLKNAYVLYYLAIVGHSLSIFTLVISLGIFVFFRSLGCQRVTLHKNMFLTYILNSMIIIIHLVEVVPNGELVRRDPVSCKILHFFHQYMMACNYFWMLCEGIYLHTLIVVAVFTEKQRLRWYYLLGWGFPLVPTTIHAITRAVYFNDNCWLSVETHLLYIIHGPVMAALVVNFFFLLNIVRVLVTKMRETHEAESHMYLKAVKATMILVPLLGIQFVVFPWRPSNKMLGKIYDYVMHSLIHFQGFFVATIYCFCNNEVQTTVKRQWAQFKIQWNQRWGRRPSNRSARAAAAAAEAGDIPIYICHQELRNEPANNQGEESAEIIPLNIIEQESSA
Put plainly: cell-based or functional assay.

Test [5] addresses T3, human amylin receptor (amylin 3(a) …). As to the kind of experiment: SPA competition, displacement of 125I-rat amylin from membranes of BHK cells with human calcitonin receptor + RAMP-3 (Assay V). As to the method: The binding assay was performed using scintillation proximity assay (SPA) beads (RPNQ0001) from PerkinElmer and cell membranes from the Amylin 3(a)/CRE-luc cells (as described in Assay (II)) were used. Membranes were prepared in the following way; the cells were rinsed with PBS and incubated with Versene for approximately 5 min before harvesting. The cells were flushed with PBS and the cell-suspension was centrifuged for 5 min at 1000 rpm. Cells were homogenized (ultrathurrax) in a buffer containing 20 mM Na-HEPES and 10 mM EDTA (pH 7.4) and centrifuged at 20.000 rpm for 15 min. The resulting pellet was resuspended, homogenized and centrifuged (20.000 rpm, 15 min) in a buffer containing 20 mM Na-HEPES and 0.1 mM EDTA (pH 7.4, buffer 2). The resulting pellet was resuspended in buffer 2 and protein concentration was measured (BCA protein Assay, Pierce). The homogenate was kept cold during the whole procedure. The membranes were kept at −80° C. until use. The assay was performed in a 384 well Optiplate (PerkinElmer) in a total volume of 40 ul. Membranes were mixed with SPA beads. Final concentration of membranes 35 ng/μL final and SPA beads was 0.05 mg/well. Test-compounds were dissolved in DMSO and further diluted in assay buffer (50 mM Hepes, pH 7.4, 1 mM CaCl2, 5 mM MgCl₂, 0.1% OA and 0.02% Tween20). […] The final mixture was incubated with shaking at 400 rpm for 120 min at 25° C. prior to centrifugation (1500 rpm, 10 min). Samples were analyzed on TopCounter™ (Packard). The IC₅₀ was calculated using (one site binding competition analysis) GraphPad Prism5 as a measure of receptor affinity.

As for {C20 diacid-γGlu}-GRCNTATCATQRLAAFLRHSSPNFGAIPSSTNVGPNTY-NH2 (disulfide 3-8), the concentration for half-maximal inhibition (IC50) in test [1] was found to be 0.114 nM.

B1: N^-1-[(4S)-4-carboxy-4-(19-carboxynonadecanoylamino)butanoyl]-Gly[Arg1,His14,Arg17,Pro21,Pro27,Pro34]-h-amylin (peptide)
peptide: {C20 diacid-γGlu}-GRCNTATCATQRLAHFLRHSSPNFGAIPSSTNVGPNTY-NH2
modifications: disulfide 3-8
SMILES: CC[C@H](C)[C@H](NC(=O)[C@H](C)NC(=O)CNC(=O)[C@H](Cc1ccccc1)NC(=O)[C@H](CC(N)=O)NC(=O)[C@@H]1CCCN1C(=O)[C@H](CO)NC(=O)[C@H](CO)NC(=O)[C@H](Cc1c[nH]cn1)NC(=O)[C@H](CCCNC(=N)N)NC(=O)[C@H](CC(C)C)NC(=O)[C@H](Cc1ccccc1)NC(=O)[C@H](Cc1c[nH]cn1)NC(=O)[C@H](C)NC(=O)[C@H](CC(C)C)NC(=O)[C@H](CCCNC(=N)N)NC(=O)[C@H](CCC(N)=O)NC(=O)[C@@H](NC(=O)[C@H](C)NC(=O)[C@@H]1CSSC[C@H](NC(=O)[C@H](CCCNC(=N)N)NC(=O)CNC(=O)CC[C@H](NC(=O)CCCCCCCCCCCCCCCCCCC(=O)O)C(=O)O)C(=O)N[C@@H](CC(N)=O)C(=O)N[C@@H]([C@@H](C)O)C(=O)N[C@@H](C)C(=O)N[C@@H]([C@@H](C)O)C(=O)N1)[C@@H](C)O)C(=O)N1CCC[C@H]1C(=O)N[C@@H](CO)C(=O)N[C@@H](CO)C(=O)N[C@H](C(=O)N[C@@H](CC(N)=O)C(=O)N[C@H](C(=O)NCC(=O)N1CCC[C@H]1C(=O)N[C@@H](CC(N)=O)C(=O)N[C@H](C(=O)N[C@@H](Cc1ccc(O)cc1)C(N)=O)[C@@H](C)O)C(C)C)[C@@H](C)O
B1: the IC50 in test [1] came to 0.217 nM.
With KCNTATCATQRLADFLRHSSPNFGAIPSSTNVGSRTY-NH2 (disulfide 2-7) [[Asp14,Arg17,Pro21,Pro27,Arg35]-h-amylin], the IC50 in test [2] was 30.9 nM.

B2: N^α1-[(4S)-4-carboxy-4-(19-carboxynonadecanoylamino)butanoyl]-[Glu14,Arg17,Pro21,Pro27,His35]-h-amylin (peptide)
peptide: {C20 diacid-γGlu}-KCNTATCATQRLAEFLRHSSPNFGAIPSSTNVGSHTY-NH2
modifications: disulfide 2-7
SMILES: CC[C@H](C)[C@H](NC(=O)[C@H](C)NC(=O)CNC(=O)[C@H](Cc1ccccc1)NC(=O)[C@H](CC(N)=O)NC(=O)[C@@H]1CCCN1C(=O)[C@H](CO)NC(=O)[C@H](CO)NC(=O)[C@H](Cc1c[nH]cn1)NC(=O)[C@H](CCCNC(=N)N)NC(=O)[C@H](CC(C)C)NC(=O)[C@H](Cc1ccccc1)NC(=O)[C@H](CCC(=O)O)NC(=O)[C@H](C)NC(=O)[C@H](CC(C)C)NC(=O)[C@H](CCCNC(=N)N)NC(=O)[C@H](CCC(N)=O)NC(=O)[C@@H](NC(=O)[C@H](C)NC(=O)[C@@H]1CSSC[C@H](NC(=O)[C@H](CCCCN)NC(=O)CC[C@H](NC(=O)CCCCCCCCCCCCCCCCCCC(=O)O)C(=O)O)C(=O)N[C@@H](CC(N)=O)C(=O)N[C@@H]([C@@H](C)O)C(=O)N[C@@H](C)C(=O)N[C@@H]([C@@H](C)O)C(=O)N1)[C@@H](C)O)C(=O)N1CCC[C@H]1C(=O)N[C@@H](CO)C(=O)N[C@@H](CO)C(=O)N[C@H](C(=O)N[C@@H](CC(N)=O)C(=O)N[C@H](C(=O)NCC(=O)N[C@@H](CO)C(=O)N[C@@H](Cc1c[nH]cn1)C(=O)N[C@H](C(=O)N[C@@H](Cc1ccc(O)cc1)C(N)=O)[C@@H](C)O)C(C)C)[C@@H](C)O
notes: also called compound 18
On to B2, for which, in test [3], the “Ratio hCT/hAmylin funct.” value came to 4.8 and the “hAmylin-R funct. EC50 (pM)” value came to 154 pM. In test [4], the “hCTR funct. EC50 (pM)” value stood at 742 pM. In addition, the concentration for half-maximal inhibition (IC50) in test [5] was 0.554 nM.

B3: N^-1-[(4S)-4-carboxy-4-(19-carboxynonadecanoylamino)butanoyl]-Gly[Arg1,Arg17,Pro21,Pro27,His35]-h-amylin (peptide)
peptide: {C20 diacid-γGlu}-GRCNTATCATQRLANFLRHSSPNFGAIPSSTNVGSHTY-NH2
modifications: disulfide 3-8
SMILES: CC[C@H](C)[C@H](NC(=O)[C@H](C)NC(=O)CNC(=O)[C@H](Cc1ccccc1)NC(=O)[C@H](CC(N)=O)NC(=O)[C@@H]1CCCN1C(=O)[C@H](CO)NC(=O)[C@H](CO)NC(=O)[C@H](Cc1c[nH]cn1)NC(=O)[C@H](CCCNC(=N)N)NC(=O)[C@H](CC(C)C)NC(=O)[C@H](Cc1ccccc1)NC(=O)[C@H](CC(N)=O)NC(=O)[C@H](C)NC(=O)[C@H](CC(C)C)NC(=O)[C@H](CCCNC(=N)N)NC(=O)[C@H](CCC(N)=O)NC(=O)[C@@H](NC(=O)[C@H](C)NC(=O)[C@@H]1CSSC[C@H](NC(=O)[C@H](CCCNC(=N)N)NC(=O)CNC(=O)CC[C@H](NC(=O)CCCCCCCCCCCCCCCCCCC(=O)O)C(=O)O)C(=O)N[C@@H](CC(N)=O)C(=O)N[C@@H]([C@@H](C)O)C(=O)N[C@@H](C)C(=O)N[C@@H]([C@@H](C)O)C(=O)N1)[C@@H](C)O)C(=O)N1CCC[C@H]1C(=O)N[C@@H](CO)C(=O)N[C@@H](CO)C(=O)N[C@H](C(=O)N[C@@H](CC(N)=O)C(=O)N[C@H](C(=O)NCC(=O)N[C@@H](CO)C(=O)N[C@@H](Cc1c[nH]cn1)C(=O)N[C@H](C(=O)N[C@@H](Cc1ccc(O)cc1)C(N)=O)[C@@H](C)O)C(C)C)[C@@H](C)O
notes: N-terminal extension by Gly at position -1; also called compound 47
For B3, in test [3], the “Ratio hCT/hAmylin funct.” value worked out at 6 and the “hAmylin-R funct. EC50 (pM)” value worked out at 222 pM. Also, the “hCTR funct. EC50 (pM)” value in test [4] worked out at 1320 pM. In addition, the IC50 in test [5] came to 0.344 nM.

A word on the IC50: it is the midpoint of a concentration-inhibition curve.

Source of the values: US20140087995A1 (published 2014).
